We go through two molecules from US20210302435A1 (SEATTLE CHILDREN S HOSPITAL D B A SEATTLE CHILDREN S …, published 2021).

Assay [1] concerns the target T1, IDUA 218 signature peptide (IDUA 218-230).
T1 construct: Endogenous tryptic peptide from digested DBS, PBMC or buccal swab samples; An internal standard version of the same peptide (1.25 fmol) was captured alongside it; also called first IDUA signature peptide
T1 peptide: LGGPGDSFHTPPR
The experiment in a line: immuno-SRM, mAb on Protein G magnetic beads, peptide capture from PBMC digest.

In assay [2] the target is T2, IDUA 462 signature peptide (IDUA 462-474).
T2 construct: Endogenous tryptic peptide from digested DBS, PBMC or buccal swab samples; An internal standard version of the same peptide (1.25 fmol) was captured alongside it; also called second IDUA signature peptide
T2 peptide: GVPPGPGLVYVTR
Described as above.

B1: anti-IDUA 218 monoclonal antibody (antibody, V domains shown)
VH: QVQLQQPGTELVKPGASVKLSCKASGYTFTRYWMHWVKQRPGQGLEWIGEINPSNGGTNYNEKFKNKATLNVDKSSSTAYMQLSSLTSEDSAVYYCTLAMDYWGQGTSVTVSS
VL: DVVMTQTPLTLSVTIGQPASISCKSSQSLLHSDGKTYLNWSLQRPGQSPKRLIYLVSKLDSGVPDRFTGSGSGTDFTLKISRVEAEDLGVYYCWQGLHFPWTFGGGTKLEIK
notes: Used as a monoclonal antibody coated on Protein G magnetic beads (1 ug per assay)
Consider B1, for which, in assay [1], the binding result is “binds”.

B2: anti-IDUA 462 monoclonal antibody (antibody, V domains shown)
VH: EVQLQQSGAELVKPGASVKLSCTASGFNIKDTYMHWVNQRPEQGLEWIGRIDPANGNTKYGPKFQGKATITADTSSNTAYLQLSSLTSEDTAVYYCAQTARAPFAYWGQGTLVTVSA
VL: DIVITQDEVSNPVTSGESVSISCRSSKSLLYKDGKTYLNWFLQRPGQSPQLLVYWMSTRASGVSDRFSGSGSGTDFTLKISRVKAEDVGMYYCQQVVEYPFTFGTGTKLEIK
notes: Used as a monoclonal antibody coated on Protein G magnetic beads (4 ug per assay)
Take B2: the binding result in assay [2] is given as “binds”.
